This note sets out measurements from the supplement of paper PMC10567573.

The chains are these.
B1: POMT2 (parent)
chain: YHEAPMTRKHYQVTGYGINGTGDS
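Further: lentivirally expressed fusions sorted by FACS into six bins by GFP to DsRed ratio, PSI derived from sequencing read proportions per bin multiplied by bin number.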

In this series the parent is B1. The series is described as follows: protein stability index of a GFP-peptide fusion (GPS, HEK-293T) (PSI 1-6); higher = more stable. Conditions: c terminus: a fixed tail appended.
For YHEAPMTRKFYQVTGYGINGTGDS [H10F], the protein stability index is 2.5.

For the variant YHEAPMTRKLYQVTGYGINGTGDS [H10L], the protein stability index came to 1.51.

Consider YHEAPMTRKGYQVTGYGINGTGDS [H10G], for which the protein stability index amounted to 3.05.

Consider YHEAPMTRKIYQVTGYGINGTGDS [H10I], for which the protein stability index amounted to 2.79.

Take YHEAPMTRKKYQVTGYGINGTGDS [H10K]: the protein stability index amounted to 2.58.

In the case of YHEAPMTRKCYQVTGYGINGTGDS [H10C], the protein stability index is 2.66.

Take YHEAPMTRKEYQVTGYGINGTGDS [H10E]: the protein stability index was 3.02.

Turning to YHEAPMTRKAYQVTGYGINGTGDS [H10A], the protein stability index is 1.86.

Turning to YHEAPMTRKDYQVTGYGINGTGDS [H10D], the protein stability index was 3.54.

As for YHEAPMTRKPYQVTGYGINGTGDS [H10P], the protein stability index was determined as 2.37.

In the case of YHEAPMTRKMYQVTGYGINGTGDS [H10M], the protein stability index was 1.94.

Turning to YHEAPMTRKNYQVTGYGINGTGDS [H10N], the protein stability index stood at 2.92.

On to YHEAPMTRNHYQVTGYGINGTGDS [K9N], for which the protein stability index turned out to be 2.47.

YHEAPMTRGHYQVTGYGINGTGDS [K9G]: the protein stability index was 2.51.

As for YHEAPMTRMHYQVTGYGINGTGDS [K9M], the protein stability index worked out at 2.3.

For the variant YHEAPMTRCHYQVTGYGINGTGDS [K9C], the protein stability index was 2.42.

In the case of YHEAPMTRWHYQVTGYGINGTGDS [K9W], the protein stability index is 2.07.

In the case of YHEAPMTRAHYQVTGYGINGTGDS [K9A], the protein stability index stood at 2.31.

Consider YHEAPMTRSHYQVTGYGINGTGDS [K9S], for which the protein stability index is 2.29.

Take YHEAPMTRLHYQVTGYGINGTGDS [K9L]: the protein stability index came out at 1.97.

In the case of YHEAPMTRDHYQVTGYGINGTGDS [K9D], the protein stability index came out at 3.42.

Turning to YHEAPMTRQHYQVTGYGINGTGDS [K9Q], the protein stability index was 2.9.

Consider YHEAPMTRIHYQVTGYGINGTGDS [K9I], for which the protein stability index was 2.12.

Consider YHEAPMTRRHYQVTGYGINGTGDS [K9R], for which the protein stability index is 1.87.

For YHEAPMTRYHYQVTGYGINGTGDS [K9Y], the protein stability index was determined as 1.76.

Consider YHEAPMTREHYQVTGYGINGTGDS [K9E], for which the protein stability index is 3.29.

As to YHEAPMTRPHYQVTGYGINGTGDS [K9P], the protein stability index turned out to be 2.76.

YHEAPMTRTHYQVTGYGINGTGDS [K9T]: the protein stability index is 2.7.

Consider YHEAPMTRFHYQVTGYGINGTGDS [K9F], for which the protein stability index was 2.13.

For YHEAPMTRHHYQVTGYGINGTGDS [K9H], the protein stability index turned out to be 1.84.

As to YHEAPMTRVHYQVTGYGINGTGDS [K9V], the protein stability index worked out at 2.35.

Regarding YHEAPMSRKHYQVTGYGINGTGDS [T7S], the protein stability index stood at 2.3.

As for YHEAPMRRKHYQVTGYGINGTGDS [T7R], the protein stability index is 1.87.

YHEAPMWRKHYQVTGYGINGTGDS [T7W]: the protein stability index stood at 3.27.

Regarding YHEAPMLRKHYQVTGYGINGTGDS [T7L], the protein stability index was 1.79.

Take YHEAPMGRKHYQVTGYGINGTGDS [T7G]: the protein stability index was 2.08.

On to YHEAPMERKHYQVTGYGINGTGDS [T7E], for which the protein stability index amounted to 2.39.

Consider YHEAPMIRKHYQVTGYGINGTGDS [T7I], for which the protein stability index worked out at 2.45.

Turning to YHEAPMARKHYQVTGYGINGTGDS [T7A], the protein stability index amounted to 2.33.

Regarding YHEAPMMRKHYQVTGYGINGTGDS [T7M], the protein stability index was 2.17.

On to YHEAPMCRKHYQVTGYGINGTGDS [T7C], for which the protein stability index amounted to 2.2.

As for YHEAPMVRKHYQVTGYGINGTGDS [T7V], the protein stability index is 2.07.

Take YHEAPMDRKHYQVTGYGINGTGDS [T7D]: the protein stability index stood at 2.66.

Turning to YHEAPMHRKHYQVTGYGINGTGDS [T7H], the protein stability index came to 2.03.

For the variant YHEAPMNRKHYQVTGYGINGTGDS [T7N], the protein stability index was 1.82.

On to YHEAPMFRKHYQVTGYGINGTGDS [T7F], for which the protein stability index turned out to be 1.92.

Take YHEAPMKRKHYQVTGYGINGTGDS [T7K]: the protein stability index came to 1.86.

As for YHEAPMQRKHYQVTGYGINGTGDS [T7Q], the protein stability index was 2.57.

Regarding YHEAPMYRKHYQVTGYGINGTGDS [T7Y], the protein stability index amounted to 1.47.

YHEAPMPRKHYQVTGYGINGTGDS [T7P]: the protein stability index worked out at 2.42.

Take YHEAPMTAKHYQVTGYGINGTGDS [R8A]: the protein stability index amounted to 2.61.

Turning to YHEAPMTGKHYQVTGYGINGTGDS [R8G], the protein stability index is 2.74.

With YHEAPMTLKHYQVTGYGINGTGDS [R8L], the protein stability index came to 3.16.

For YHEAPMTPKHYQVTGYGINGTGDS [R8P], the protein stability index stood at 2.31.

Consider YHEAPMTYKHYQVTGYGINGTGDS [R8Y], for which the protein stability index amounted to 2.09.

YHEAPMTSKHYQVTGYGINGTGDS [R8S]: the protein stability index came to 2.6.

YHEAPMTFKHYQVTGYGINGTGDS [R8F]: the protein stability index stood at 2.09.

For YHEAPMTNKHYQVTGYGINGTGDS [R8N], the protein stability index is 2.82.

With YHEAPMTWKHYQVTGYGINGTGDS [R8W], the protein stability index is 1.62.

Regarding YHEAPMTQKHYQVTGYGINGTGDS [R8Q], the protein stability index came out at 2.86.

In the case of YHEAPMTHKHYQVTGYGINGTGDS [R8H], the protein stability index came to 3.02.

With YHEAPMTCKHYQVTGYGINGTGDS [R8C], the protein stability index is 1.95.

For YHEAPMTVKHYQVTGYGINGTGDS [R8V], the protein stability index came to 2.55.

Regarding YHEAPMTIKHYQVTGYGINGTGDS [R8I], the protein stability index was determined as 1.94.

For YHEAPMTEKHYQVTGYGINGTGDS [R8E], the protein stability index amounted to 3.

Take YHEAPMTTKHYQVTGYGINGTGDS [R8T]: the protein stability index was 2.44.

Take YHEAPMTKKHYQVTGYGINGTGDS [R8K]: the protein stability index stood at 2.44.

For the variant YHEAPMTDKHYQVTGYGINGTGDS [R8D], the protein stability index was 3.19.

For the variant YHEAPMTMKHYQVTGYGINGTGDS [R8M], the protein stability index came to 2.68.

As for YHEATMTRKHYQVTGYGINGTGDS [P5T], the protein stability index was 2.02.

Regarding YHEASMTRKHYQVTGYGINGTGDS [P5S], the protein stability index was 2.69.

Consider YHEAYMTRKHYQVTGYGINGTGDS [P5Y], for which the protein stability index stood at 1.73.

For the variant YHEAVMTRKHYQVTGYGINGTGDS [P5V], the protein stability index was determined as 2.14.

In the case of YHEAWMTRKHYQVTGYGINGTGDS [P5W], the protein stability index is 1.63.

In the case of YHEARMTRKHYQVTGYGINGTGDS [P5R], the protein stability index came out at 2.29.

With YHEAPTTRKHYQVTGYGINGTGDS [M6T], the protein stability index stood at 2.43.

YHEAPPTRKHYQVTGYGINGTGDS [M6P]: the protein stability index was determined as 2.55.

For the variant YHEAPETRKHYQVTGYGINGTGDS [M6E], the protein stability index turned out to be 2.56.

For the variant YHEAPYTRKHYQVTGYGINGTGDS [M6Y], the protein stability index was 1.98.

YHEAPQTRKHYQVTGYGINGTGDS [M6Q]: the protein stability index came to 2.68.

Consider YHEAPKTRKHYQVTGYGINGTGDS [M6K], for which the protein stability index is 2.55.

Regarding YHEAPHTRKHYQVTGYGINGTGDS [M6H], the protein stability index is 1.69.

With YHEAPCTRKHYQVTGYGINGTGDS [M6C], the protein stability index is 2.

As to YHEAPVTRKHYQVTGYGINGTGDS [M6V], the protein stability index was 2.67.

YHEAPRTRKHYQVTGYGINGTGDS [M6R]: the protein stability index was determined as 2.7.

YHEAPNTRKHYQVTGYGINGTGDS [M6N]: the protein stability index was determined as 2.15.

As to YHEAPATRKHYQVTGYGINGTGDS [M6A], the protein stability index worked out at 2.48.

As to YHEAPITRKHYQVTGYGINGTGDS [M6I], the protein stability index stood at 2.83.

Turning to YHEAPLTRKHYQVTGYGINGTGDS [M6L], the protein stability index came to 2.41.

Regarding YHEAPSTRKHYQVTGYGINGTGDS [M6S], the protein stability index worked out at 2.59.

For the variant YHEAPFTRKHYQVTGYGINGTGDS [M6F], the protein stability index came to 1.82.

As to YHEAPWTRKHYQVTGYGINGTGDS [M6W], the protein stability index is 1.42.

In the case of YHEAPGTRKHYQVTGYGINGTGDS [M6G], the protein stability index is 2.38.

In the case of YHEAPDTRKHYQVTGYGINGTGDS [M6D], the protein stability index is 2.36.
